Results reported in patent publication US20250129167A1 (University of Texas, published 2025).

Legend:
[1] = molecular target: T1, PD-L2 on CHO-PD-L2 cells (Promega blockade system) (UniProt Q9BQ51 20-273, limits assumed); test: cell-based or functional assay
T1 sequence (looked up): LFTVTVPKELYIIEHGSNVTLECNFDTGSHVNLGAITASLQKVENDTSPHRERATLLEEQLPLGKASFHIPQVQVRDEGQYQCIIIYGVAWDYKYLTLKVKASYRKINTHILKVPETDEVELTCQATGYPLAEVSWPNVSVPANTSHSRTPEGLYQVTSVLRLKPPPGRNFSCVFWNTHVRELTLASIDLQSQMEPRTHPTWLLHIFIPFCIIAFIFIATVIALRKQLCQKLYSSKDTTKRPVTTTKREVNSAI

[2] = molecular target: T2, Mouse PD-L2-Fc (mouse, UniProt Q9WUL5 20-219, limits assumed); test: column 'Species cross-reactivity'
T2 construct: also called murine PD-L2; not shown: Fc part of the fusion
T2 sequence (looked up): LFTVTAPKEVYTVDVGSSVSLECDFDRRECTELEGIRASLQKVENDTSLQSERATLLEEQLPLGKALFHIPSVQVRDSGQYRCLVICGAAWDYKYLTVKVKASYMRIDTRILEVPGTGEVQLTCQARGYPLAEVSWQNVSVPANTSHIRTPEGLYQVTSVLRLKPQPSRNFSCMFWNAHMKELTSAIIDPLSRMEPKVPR

[3] = molecular target: T3, Cyno PD-L2-Fc (cyno, UniProt A0A2K5U5Z4 20-219); test: ForteBio Octet, IgG on sensor, Fc-fusion antigen in solution (avid)
T3 construct: not shown: Fc part of the fusion
T3 sequence: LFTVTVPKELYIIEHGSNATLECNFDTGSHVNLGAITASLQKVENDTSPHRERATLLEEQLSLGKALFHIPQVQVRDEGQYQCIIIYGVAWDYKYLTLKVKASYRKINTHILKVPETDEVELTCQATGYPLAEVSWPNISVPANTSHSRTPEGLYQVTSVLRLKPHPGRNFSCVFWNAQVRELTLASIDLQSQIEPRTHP
Protocol: (§1) ForteBio KD measurements—ForteBio affinity measurements were performed on an Octet RED384 generally as previously described (sec, e.g., Estep et al., 2013). Briefly, ForteBio affinity measurements were performed by loading IgGs on-line onto AHQ sensors. Sensors were equilibrated off-line in assay buffer for 30 min and then monitored on-line for 60 seconds for baseline establishment. Sensors with loaded IgGs were exposed to 100 nM antigen for 3 minutes, and afterwards were transferred to assay buffer for 3 min for off-rate measurement. For monovalent affinity assessment Fabs were used instead of IgGs. For this assessment the unbiotinylated Fc fusion antigen was loaded on-line onto the AHQ sensors. Sensors were equilibrated off-line in assay buffer for 30 min and then monitored on-line for 60 seconds for baseline establishment. Sensors with loaded antigen were exposed to 100 nM Fab for 3 minutes, and afterwards they were transferred to assay buffer for 3 min for off-rate measurement. All kinetics were analyzed using the 1:1 binding model.

[4] = molecular target: T4, Mouse PD-L1-Fc (mouse, UniProt Q9EP73 19-238, limits assumed); test: as above
T4 construct: also called murine PD-L1; not shown: Fc part of the fusion
Protocol: as §1

[5] = molecular target: T5, Cyno PD-L1-Fc (cyno, UniProt G7PSE7 19-238); test: as above
T5 construct: not shown: The Fc part of the fusion and any linker to it
Protocol: as §1

[6] = molecular target: T6, Human PD-L1-Fc (human, UniProt Q9NZQ7 19-238); test: as above
T6 construct: not shown: Fc part of the fusion
Protocol: as §1

[7] = molecular target: T7, Human PD-L2-Fc (human, UniProt Q9BQ51 20-220); test: as above
T7 construct: not shown: Fc part of the fusion
T7 sequence: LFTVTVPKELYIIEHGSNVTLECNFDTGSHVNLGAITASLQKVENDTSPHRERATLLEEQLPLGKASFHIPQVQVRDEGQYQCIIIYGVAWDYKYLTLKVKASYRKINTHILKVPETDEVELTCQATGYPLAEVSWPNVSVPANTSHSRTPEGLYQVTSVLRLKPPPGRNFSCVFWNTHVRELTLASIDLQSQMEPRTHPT
Protocol: as §1

[8] = molecular target: T6, Human PD-L1-Fc; test: ForteBio Octet, Fc-fusion antigen on sensor, Fab in solution (monovalent)
Protocol: as §1

[9] = molecular target: T7, Human PD-L2-Fc; test: as above
Protocol: as §1

[10] = molecular target: T4, Mouse PD-L1-Fc; test: column 'Species cross-reactivity'
[11] = molecular target: T2, Mouse PD-L2-Fc; test: ForteBio Octet, IgG on sensor, Fc-fusion antigen in solution (avid)
Protocol: as §1

[12] = molecular target: PD-L1 on CHO-PD-L1 cells (Promega blockade system) (UniProt Q9NZQ7 19-290, limits assumed); test: cell-based or functional assay
[13] = molecular target: PD-L2 on CHO-PD-L1/PDL2 cells (Promega blockade system); test: cell-based or functional assay
[14] = molecular target: PD-L1 on CHO-PD-L1/PDL2 cells (Promega blockade system); test: cell-based or functional assay

T4 sequence (Q9EP73 19-238 limits assumed): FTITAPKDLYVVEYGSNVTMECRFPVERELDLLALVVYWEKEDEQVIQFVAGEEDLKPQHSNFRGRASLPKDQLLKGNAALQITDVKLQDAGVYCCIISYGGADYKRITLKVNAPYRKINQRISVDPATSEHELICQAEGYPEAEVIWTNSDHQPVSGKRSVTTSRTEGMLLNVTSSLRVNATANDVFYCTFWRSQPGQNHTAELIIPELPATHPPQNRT
T5 sequence (G7PSE7 entry or part of it limits assumed): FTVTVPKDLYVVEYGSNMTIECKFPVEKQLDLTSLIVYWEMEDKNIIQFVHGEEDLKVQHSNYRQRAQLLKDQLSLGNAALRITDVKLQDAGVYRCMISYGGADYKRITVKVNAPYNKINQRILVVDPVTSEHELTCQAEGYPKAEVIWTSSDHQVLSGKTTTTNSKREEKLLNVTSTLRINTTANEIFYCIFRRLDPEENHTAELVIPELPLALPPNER

B1: ADI-20236 (antibody, V domains shown)
VH: QVQLVQSGAEVKKPGSSVKVSCKASGGTFSSHAISWVRQAPGQGLEWMGGIIPIFGWALYAQKFQGRVTITADESTSTAYMELSSLRSEDTAVYYCARPGDHRASHFDYWGQGTLVTVSS
VL: DIQMTQSPSSVSASVGDRVTITCRASQGISSWLAWYQQKPGKAPKLLIYAASSLQSGVPSRFSGSGSGTDFTLTISSLQPEDFATYYCQQANSFPITFGGGTKVEIK
notes: Vk1-12 common light chain; also called PD-L2-C1-1; cLC-PDL2 (22731)
Q: What does the source list for B1?
A: EC50 (read off the curve); luciferase fold induction, Promega CHO-PD-L2 / PD-1 Jurkat assay [Cont'd] [1]: ~200 pM; binding result [2]: binds; Kd [3]: 640 pM; binding result [4]: no binding (tested: 100 nM); binding result [5]: no binding (tested: 100 nM); binding result [6]: no binding (tested: 100 nM); Kd [7]: 416 pM

B2: ADI-20236 Fab (Fab, V domains shown)
VH: B1 VH
VL: B1 VL
notes: also called cLC-PDL2 (22731) Fab
Q: Does B2 bind [8]?
A: Result: no binding (tested: 100 nM)

Q: What about the Kd [9] of the same binder?
A: The Kd was 541 pM.

B3: ADI-20225 (antibody, V domains shown)
VH: QVQLVQSGAEVKKPGASVKVSCKASGGTFRSYAIQWVRQAPGQGLEWMGWIIPGFGTANYAQKFQGRVTITADESTSTAYMELSSLRSEDTAVYYCARELSHGGLSYWGQGTLVTVSS
VL: B1 VL
notes: Vk1-12 common light chain; also called PD-L1-C1-1; cLC-PDL1 (22731)
Q: Does B3 bind [10]?
A: Result: binds

Q: Does B3 bind [3]?
A: Result: no binding (tested: 100 nM)

Q: What about the Kd [5] of the same binder?
A: Its Kd is 237 pM.

Q: What about the Kd [6] of the same binder?
A: The Kd was 223 pM.

Q: Does B3 bind [7]?
A: Result: no binding (tested: 100 nM)

Q: Does B3 bind [11]?
A: Result: no binding (tested: 100 nM)

Q: And the “EC50 (read off the curve); luciferase fold induction, Promega CHO-PD-L1 / PD-1 Jurkat assay” value [12]?
A: The value was roughly 100 pM.

B4: ADI-20225 Fab (Fab, V domains shown)
VH: B3 VH
VL: B1 VL
notes: also called cLC-PDL1 (22731) Fab
Q: What does the source list for B4?
A: Kd [8]: 833 pM; binding result [9]: no binding (tested: 100 nM)

B5: DiPDL candidate C1 (bispecific antibody, V domains shown)
VH 1: B3 VH
VH 2: B1 VH
VL: B1 VL
Q: How did the “EC50 (read off the curve); luciferase fold induction, Promega CHO-PD-L1/PD-L2 / PD-1 Jurkat assay, combined blockade of PD-L1 and PD-L2 [Cont'd]” value [13] turn out when B5 was run?
A: Its value is roughly 200 pM.

Q: And the “EC50 (read off the curve); luciferase fold induction, Promega CHO-PD-L1/PD-L2 / PD-1 Jurkat assay, combined blockade of PD-L1 and PD-L2 [Cont'd]” value [14]?
A: Its value is roughly 200 pM.

B6: ADI-20241 (antibody, V domains shown)
VH: QVQLVQSGAEVKKPGSSVKVSCKASGGTFSEYAIVWVRQAPGQGLEWMGGIIPLFGTANYAQKFQGRVTITADESTSTAYMELSSLRSEDTAVYYCARPLDRRIVAFDIWGQGTMVTVSS
VL: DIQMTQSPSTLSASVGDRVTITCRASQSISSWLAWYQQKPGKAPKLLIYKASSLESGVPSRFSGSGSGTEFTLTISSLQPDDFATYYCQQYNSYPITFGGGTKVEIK
notes: Vk1-05 common light chain; also called PD-L2-C2-1; cLC-PDL2 (22726)
Q: Which results are given for B6?
A: EC50 (read off the curve); luciferase fold induction, Promega CHO-PD-L2 / PD-1 Jurkat assay [Cont'd] [1]: ~200 pM; binding result [2]: binds; Kd [3]: 253 pM; binding result [4]: no binding (tested: 100 nM); binding result [5]: no binding (tested: 100 nM); binding result [6]: no binding (tested: 100 nM); Kd [7]: 487 pM

B7: DiPDL candidate C2 (bispecific antibody, V domains shown)
VH 1: QVQLVQSGAEVKKPGSSVKVSCKASGGTFSSYFISWVRQAPGQGLEWMGQIIPNVGTANYAQKFQGRVTITADESTSTAYMELSSLRSEDTAVYYCARDQTAKAHLVWGQGTLVTVSS
VH 2: B6 VH
VL: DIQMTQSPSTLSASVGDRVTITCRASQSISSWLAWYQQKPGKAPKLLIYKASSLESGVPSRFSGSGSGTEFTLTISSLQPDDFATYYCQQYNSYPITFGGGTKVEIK
Q: For B7, which “EC50 (read off the curve); luciferase fold induction, Promega CHO-PD-L1/PD-L2 / PD-1 Jurkat assay, combined blockade of PD-L1 and PD-L2 [Cont'd]” value [13] is on record?
A: Its value is roughly 600 pM.

Q: What about the “EC50 (read off the curve); luciferase fold induction, Promega CHO-PD-L1/PD-L2 / PD-1 Jurkat assay, combined blockade of PD-L1 and PD-L2 [Cont'd]” value [14] of the same binder?
A: Its value is roughly 600 pM.

B8: ADI-20241 Fab (Fab, V domains shown)
VH: B6 VH
VL: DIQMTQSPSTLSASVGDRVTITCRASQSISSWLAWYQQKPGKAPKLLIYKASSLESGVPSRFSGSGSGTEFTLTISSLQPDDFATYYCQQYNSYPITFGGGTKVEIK
notes: also called cLC-PDL2 (22726) Fab
Q: Does B8 bind [8]?
A: Result: no binding (tested: 100 nM)

Q: And the Kd [9]?
A: Its Kd is 1990 pM.

B9: ADI-20230 (antibody, V domains shown)
VH: B7 VH 1
VL: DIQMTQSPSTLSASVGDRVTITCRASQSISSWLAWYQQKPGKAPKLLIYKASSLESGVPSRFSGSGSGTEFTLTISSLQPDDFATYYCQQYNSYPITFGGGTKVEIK
notes: Vk1-05 common light chain; also called PD-L1-C2-1; cLC-PDL1 (22726)
Q: Does B9 bind [3]?
A: Result: no binding (tested: 100 nM)

Q: Does B9 bind [4]?
A: Result: no binding (tested: 100 nM)

Q: What about the Kd [5] of the same binder?
A: The Kd was 264 pM.

Q: What about the Kd [6] of the same binder?
A: Its Kd is 205 pM.

Q: Does B9 bind [7]?
A: Result: no binding (tested: 100 nM)

Q: Does B9 bind [11]?
A: Result: no binding (tested: 100 nM)

Q: And the “EC50 (read off the curve); luciferase fold induction, Promega CHO-PD-L1 / PD-1 Jurkat assay” value [12]?
A: Its value is roughly 100 pM.

B10: ADI-20230 Fab (Fab, V domains shown)
VH: B7 VH 1
VL: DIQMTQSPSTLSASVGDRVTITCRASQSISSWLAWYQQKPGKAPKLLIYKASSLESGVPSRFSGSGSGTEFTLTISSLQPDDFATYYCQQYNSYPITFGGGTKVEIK
notes: also called cLC-PDL1 (22726) Fab
Q: B10 was tested. Which Kd [8] did it give?
A: Its Kd is 823 pM.

Q: Does B10 bind [9]?
A: Result: no binding (tested: 100 nM)
